This note sets out measurements from patent publication US20200261595A1 (Novo Nordisk, published 2020).

For one experiment, the target named is insulin receptor A (UniProt P06213-2 28-1370, limits assumed). Description: insulin receptor binding assay as in Vienberg et al. 2011; relative to human insulin on insulin receptor A (100%).
For experiment [1], the target named is insulin receptor of isolated rat adipocytes (rat, UniProt P15127 27-1383). The experiment can be described thus: cell-based or functional assay.
Sequence of insulin receptor of isolated rat adipocytes (P15127 27-1383): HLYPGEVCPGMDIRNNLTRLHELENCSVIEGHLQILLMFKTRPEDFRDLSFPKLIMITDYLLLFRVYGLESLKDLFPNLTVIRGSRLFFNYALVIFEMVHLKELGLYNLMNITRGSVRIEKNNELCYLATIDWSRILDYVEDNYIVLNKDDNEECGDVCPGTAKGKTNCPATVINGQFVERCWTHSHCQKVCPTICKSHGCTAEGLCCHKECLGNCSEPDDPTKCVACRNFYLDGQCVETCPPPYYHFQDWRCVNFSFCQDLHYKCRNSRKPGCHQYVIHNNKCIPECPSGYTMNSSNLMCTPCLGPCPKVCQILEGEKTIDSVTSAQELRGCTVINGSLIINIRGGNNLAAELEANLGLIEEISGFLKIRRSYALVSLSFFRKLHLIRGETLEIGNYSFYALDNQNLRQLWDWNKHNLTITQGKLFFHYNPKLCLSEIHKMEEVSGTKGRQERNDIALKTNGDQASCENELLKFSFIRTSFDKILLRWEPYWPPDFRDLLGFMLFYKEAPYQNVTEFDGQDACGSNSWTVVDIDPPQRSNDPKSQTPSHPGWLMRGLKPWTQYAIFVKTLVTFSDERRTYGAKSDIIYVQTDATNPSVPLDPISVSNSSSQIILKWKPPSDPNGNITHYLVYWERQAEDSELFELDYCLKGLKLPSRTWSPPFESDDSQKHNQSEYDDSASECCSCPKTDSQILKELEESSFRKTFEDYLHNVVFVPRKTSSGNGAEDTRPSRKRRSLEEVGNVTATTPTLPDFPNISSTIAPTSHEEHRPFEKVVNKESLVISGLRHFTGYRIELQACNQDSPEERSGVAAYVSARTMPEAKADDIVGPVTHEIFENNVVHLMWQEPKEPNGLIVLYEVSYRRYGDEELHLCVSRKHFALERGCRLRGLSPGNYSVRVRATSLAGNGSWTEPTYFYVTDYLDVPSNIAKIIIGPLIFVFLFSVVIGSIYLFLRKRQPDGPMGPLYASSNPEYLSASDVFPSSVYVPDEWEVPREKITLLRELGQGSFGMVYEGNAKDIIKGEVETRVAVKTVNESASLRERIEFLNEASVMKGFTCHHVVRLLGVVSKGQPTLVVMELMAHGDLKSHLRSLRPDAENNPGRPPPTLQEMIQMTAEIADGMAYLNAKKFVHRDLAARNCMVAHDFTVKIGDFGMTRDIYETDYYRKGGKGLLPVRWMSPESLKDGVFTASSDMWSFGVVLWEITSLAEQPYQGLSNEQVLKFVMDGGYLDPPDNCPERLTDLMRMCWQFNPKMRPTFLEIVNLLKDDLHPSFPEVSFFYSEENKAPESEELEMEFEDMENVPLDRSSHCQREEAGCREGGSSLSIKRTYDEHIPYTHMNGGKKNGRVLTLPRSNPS

Sequence of insulin receptor A (P06213 other isoform, or with tags, fused parts or gaps limits assumed): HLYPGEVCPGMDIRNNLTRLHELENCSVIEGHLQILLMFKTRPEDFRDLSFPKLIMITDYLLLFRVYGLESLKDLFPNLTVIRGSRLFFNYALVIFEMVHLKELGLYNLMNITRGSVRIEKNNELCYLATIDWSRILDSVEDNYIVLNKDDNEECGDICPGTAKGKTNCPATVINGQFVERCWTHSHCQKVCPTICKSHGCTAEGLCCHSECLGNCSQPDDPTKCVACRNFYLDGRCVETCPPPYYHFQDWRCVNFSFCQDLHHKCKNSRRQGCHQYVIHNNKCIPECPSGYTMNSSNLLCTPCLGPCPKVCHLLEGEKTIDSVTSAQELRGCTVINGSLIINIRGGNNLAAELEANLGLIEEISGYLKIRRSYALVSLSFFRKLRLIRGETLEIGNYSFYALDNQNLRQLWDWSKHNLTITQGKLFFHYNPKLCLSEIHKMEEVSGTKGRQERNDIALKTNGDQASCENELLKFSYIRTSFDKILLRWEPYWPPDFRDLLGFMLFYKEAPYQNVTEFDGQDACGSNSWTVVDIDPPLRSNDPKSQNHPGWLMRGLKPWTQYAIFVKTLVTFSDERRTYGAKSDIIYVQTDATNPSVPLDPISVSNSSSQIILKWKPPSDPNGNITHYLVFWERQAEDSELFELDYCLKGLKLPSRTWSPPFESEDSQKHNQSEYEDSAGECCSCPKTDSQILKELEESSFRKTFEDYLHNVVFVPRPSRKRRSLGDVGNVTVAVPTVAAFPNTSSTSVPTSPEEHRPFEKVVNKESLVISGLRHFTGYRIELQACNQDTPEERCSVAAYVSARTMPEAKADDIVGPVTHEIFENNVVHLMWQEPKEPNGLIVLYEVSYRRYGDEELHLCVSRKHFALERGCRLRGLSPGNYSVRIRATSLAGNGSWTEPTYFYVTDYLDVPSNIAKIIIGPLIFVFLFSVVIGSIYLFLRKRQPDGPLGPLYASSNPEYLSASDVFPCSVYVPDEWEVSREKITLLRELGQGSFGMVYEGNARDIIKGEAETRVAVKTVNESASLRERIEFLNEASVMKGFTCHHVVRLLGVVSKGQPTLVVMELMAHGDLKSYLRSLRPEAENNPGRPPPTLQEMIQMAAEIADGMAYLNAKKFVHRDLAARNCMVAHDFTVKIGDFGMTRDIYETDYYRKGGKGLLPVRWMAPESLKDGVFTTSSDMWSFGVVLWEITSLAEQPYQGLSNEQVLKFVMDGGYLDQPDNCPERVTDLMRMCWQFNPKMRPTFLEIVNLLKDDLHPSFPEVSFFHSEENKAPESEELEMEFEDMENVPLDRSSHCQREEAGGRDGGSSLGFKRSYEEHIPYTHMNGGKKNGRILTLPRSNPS

B1: (A14E, A21G, A22(GQEP)19, 98K^, A99P, B25H, B29R, desB30 human insulin)/(226A, 227G, 228P, 234A, 235K, des447 hIgG4-Fc(228-447)) … (other)
chain 1: GIVEQCCTSICSLEQLENYCGGQEPGQEPGQEPGQEPGQEPGQEPGQEPGQEPGQEPGQEPGQEPGQEPGQEPGQEPGQEPGQEPGQEPGQEPGQEPKP
chain 2: FVNQHLCGSHLVEALYLVCGERGFHYTPR
chain 3: AGPCPAPEAKGGPSVFLFPPKPKDTLMISRTPEVTCVVVDVSQEDPEVQFNWYVDGVEVHNAKTKPREEQFNSTYRVVSVLTVLHQDWLNGKEYKCKVSNKGLPSSIEKTISKAKGQPREPQVYTLPPSQEEMTKNQVSLTCLVKGFYPSDIAVEWESNGQPENNYKTTPPVLDSDGSFFLYSRLTVDKSRWQEGNVFSCSVMHEALHNHYTQKSLSLSLG
modifications: Cys229 (EU numbering) sulphur bound to an acetyl arm of the linker; A98K N(eps) acylated by the trivalent linker 3,5-bis[(2-acetyl)amino]benzoyl
In the case of B1, the “Insulin receptor affinity [IC50 relative to HI (%)]” value with insulin receptor A was 3.85%.

B2: (A14E, A21G, A22(GQAP)19, A98K^, A99P, B25H, B29R, desB30 human insulin)/(227A, 234A, 235K, 297E, 315Q, 384Q, des447 hIgG4-Fc(228-447)) … (other)
chain 1: GIVEQCCTSICSLEQLENYCGGQAPGQAPGQAPGQAPGQAPGQAPGQAPGQAPGQAPGQAPGQAPGQAPGQAPGQAPGQAPGQAPGQAPGQAPGQAPKP
chain 2: FVNQHLCGSHLVEALYLVCGERGFHYTPR
chain 3: ASCPAPEAKGGPSVFLFPPKPKDTLMISRTPEVTCVVVDVSQEDPEVQFNWYVDGVEVHNAKTKPREEQFESTYRVVSVLTVLHQDWLQGKEYKCKVSNKGLPSSIEKTISKAKGQPREPQVYTLPPSQEEMTKNQVSLTCLVKGFYPSDIAVEWESQGQPENNYKTTPPVLDSDGSFFLYSRLTVDKSRWQEGNVFSCSVMHEALHNHYTQKSLSLSLG
modifications: Cys229 (EU numbering) sulphur bound to an acetyl arm of the linker; A98K N(eps) acylated by the trivalent linker 4-[bis[2-[(2-acetyl)amino]ethyl]amino]-4-oxo-butanoyl
notes: also called Ex 5.15
For B2, the “Lipogenesis in rat adipocytes [Potency (%)] Mean Value” in experiment [1] was 3.68 % of human insulin. Moreover, the “Insulin receptor affinity [IC50 relative to HI (%)]” value with insulin receptor A was 3.68%.

B3: (A1(N(alpha)acetyl), A14E, A21G, A22(GQAP)19, A98K^, A99P, B1(N(alpha)acetyl), B25H, B29R, desB30 human insulin)/(227A, 234A, 235K, 297E, 315Q, 384Q, des447 … (other)
chain 1: B2 chain 1
chain 2: FVNQHLCGSHLVEALYLVCGERGFHYTPR
chain 3: B2 chain 3
modifications: Cys229 (EU numbering) sulphur bound to an acetyl arm of the linker; B1 N(alpha)-acetyl; A1 N(alpha)-acetyl; A98K N(eps) acylated by the trivalent linker 4-[bis[2-[(2-acetyl)amino]ethyl]amino]-4-oxo-butanoyl
notes: Chemical insulin-Fc conjugate; also called Ex 5.27
For the molecule B3, the “Insulin receptor affinity [IC50 relative to HI (%)]” value with insulin receptor A worked out at 1.07%.

B4: A14E, A21G, A22(GQEP)6, A46K^, A47P, B25H, B29R, desB30 human insulin/(227A, 234A, 235K, 297E, 315Q, 384Q, des447 hIgG4-Fc(228-447)) … (other)
chain 1: GIVEQCCTSICSLEQLENYCGGQEPGQEPGQEPGQEPGQEPGQEPKP
chain 2: FVNQHLCGSHLVEALYLVCGERGFHYTPR
chain 3: B2 chain 3
modifications: Cys229 (EU numbering) sulphur bound to an acetyl arm of the linker; A46K N(eps) acylated by the trivalent linker 4-[bis[2-[(2-acetyl)amino]ethyl]amino]-4-oxo-butanoyl
notes: also called Ex 5.32
As to B4, the “Lipogenesis in rat adipocytes [Potency (%)] Mean Value” in experiment [1] was 3.72 % of human insulin. Further, the “Insulin receptor affinity [IC50 relative to HI (%)]” value with insulin receptor A is 2.16%.

B5: (A14E, A21G, A22(GQAP)24, A118G, A119Q, A120A, A121K^, A122P, B25H, B29R, desB30 human insulin)/(227A, 234A, 235K, 297E, 315Q, 384Q, des447 hIgG4-Fc(228-447)) … (other)
chain 1: GIVEQCCTSICSLEQLENYCGGQAPGQAPGQAPGQAPGQAPGQAPGQAPGQAPGQAPGQAPGQAPGQAPGQAPGQAPGQAPGQAPGQAPGQAPGQAPGQAPGQAPGQAPGQAPGQAPGQAKP
chain 2: FVNQHLCGSHLVEALYLVCGERGFHYTPR
chain 3: B2 chain 3
modifications: Cys229 (EU numbering) sulphur bound to an acetyl arm of the linker; A121K N(eps) acylated by the trivalent linker 4-[bis[2-[(2-acetyl)amino]ethyl]amino]-4-oxo-butanoyl
notes: also called Ex 5.23
As to B5, the “Lipogenesis in rat adipocytes [Potency (%)] Mean Value” in experiment [1] was 5.36 % of human insulin. In the experiment with insulin receptor A, the “Insulin receptor affinity [IC50 relative to HI (%)]” value came out at 4.7%.

B6: A14E, A21G, A22(GQAPGQAPGQAPGQEP)6-GQAP, A122K^, A123P, B25H, B29R, desB30 human insulin/(227A, 234A, 235K, 297E, 315Q, 384Q, des447 hIgG4-Fc(228-447)) … (other)
chain 1: GIVEQCCTSICSLEQLENYCGGQAPGQAPGQAPGQEPGQAPGQAPGQAPGQEPGQAPGQAPGQAPGQEPGQAPGQAPGQAPGQEPGQAPGQAPGQAPGQEPGQAPGQAPGQAPGQEPGQAPKP
chain 2: FVNQHLCGSHLVEALYLVCGERGFHYTPR
chain 3: B2 chain 3
modifications: Cys229 (EU numbering) sulphur bound to an acetyl arm of the linker; A122K N(eps) acylated by the trivalent linker 4-[bis[2-[(2-acetyl)amino]ethyl]amino]-4-oxo-butanoyl
notes: also called Ex 5.20
In the case of B6, in experiment [1], the “Lipogenesis in rat adipocytes [Potency (%)] Mean Value” is 5.41 % of human insulin. Further, in the experiment with insulin receptor A, the “Insulin receptor affinity [IC50 relative to HI (%)]” value turned out to be 5.49%.

B7: A14E, A21G, A22(GQAPGQEP)6, A70K^, A71P, B25H, B29R, desB30 human insulin/(227A, 234A, 235K, 297E, 315Q, 384Q, des447 hIgG4-Fc(228-447)) … (other)
chain 1: GIVEQCCTSICSLEQLENYCGGQAPGQEPGQAPGQEPGQAPGQEPGQAPGQEPGQAPGQEPGQAPGQEPKP
chain 2: FVNQHLCGSHLVEALYLVCGERGFHYTPR
chain 3: B2 chain 3
modifications: Cys229 (EU numbering) sulphur bound to an acetyl arm of the linker; A70K N(eps) acylated by the trivalent linker 4-[bis[2-[(2-acetyl)amino]ethyl]amino]-4-oxo-butanoyl
notes: also called Ex 5.14
Take B7: the “Lipogenesis in rat adipocytes [Potency (%)] Mean Value” in experiment [1] is 4.86 % of human insulin. Further, the “Insulin receptor affinity [IC50 relative to HI (%)]” value with insulin receptor A turned out to be 5.37%.

B8: (A14E, A21G, A22(GQAP)18, A94G, A95Q, A96A, A97K^, A98P, B29R, desB30 human insulin)/(227A, 234A, 235K, 297E, 315Q, 384Q, des447 hIgG4-Fc(228-447)) … (other)
chain 1: GIVEQCCTSICSLEQLENYCGGQAPGQAPGQAPGQAPGQAPGQAPGQAPGQAPGQAPGQAPGQAPGQAPGQAPGQAPGQAPGQAPGQAPGQAPGQAKP
chain 2: FVNQHLCGSHLVEALYLVCGERGFFYTPR
chain 3: B2 chain 3
modifications: Cys229 (EU numbering) sulphur bound to an acetyl arm of the linker; A97K N(eps) acylated by the trivalent linker 4-[bis[2-[(2-acetyl)amino]ethyl]amino]-4-oxo-butanoyl
notes: also called Ex 5.26
For the molecule B8, the “Lipogenesis in rat adipocytes [Potency (%)] Mean Value” in experiment [1] is 3.23 % of human insulin. Further, the “Insulin receptor affinity [IC50 relative to HI (%)]” value with insulin receptor A amounted to 3.95%.

B9: A14E, A21G, A22(GQEP)19, A98K^, A99P, B3Q, B25H, B29R, desB30 human insulin/(227A, 234A, 235K, 297E, 315Q, 384Q, des447 hIgG4-Fc(228-447)) … (other)
chain 1: B1 chain 1
chain 2: FVQQHLCGSHLVEALYLVCGERGFHYTPR
chain 3: B2 chain 3
modifications: Cys229 (EU numbering) sulphur bound to an acetyl arm of the linker; A98K N(eps) acylated by the trivalent linker 4-[bis[2-[(2-acetyl)amino]ethyl]amino]-4-oxo-butanoyl
notes: also called Ex 5.2
In the case of B9, the “Lipogenesis in rat adipocytes [Potency (%)] Mean Value” in experiment [1] is 3.57 % of human insulin. Besides, in the experiment with insulin receptor A, the “Insulin receptor affinity [IC50 relative to HI (%)]” value was 6.1%.

B10: (A14E, A21G, A22(GQAP)24, A118G, A119Q, A120A, A121K^, A122P, B25H, B29R, desB30 human insulin)/(227A, 234A, 235K, 297E, 315Q, 384Q, des447 hIgG4-Fc(228-447)) … (other)
chain 1: B5 chain 1
chain 2: FVNQHLCGSHLVEALYLVCGERGFHYTPR
chain 3: B2 chain 3
modifications: Cys229 (EU numbering) sulphur bound to an acetyl arm of the linker; A121K N(eps) acylated by the trivalent linker 3,5-bis[(2-acetyl)amino]benzoyl
notes: also called Ex 5.22
As to B10, the “Lipogenesis in rat adipocytes [Potency (%)] Mean Value” in experiment [1] was 4.64 % of human insulin. The “Insulin receptor affinity [IC50 relative to HI (%)]” value in the experiment with insulin receptor A came out at 3.56%.

B11: (A14E, A21G, A22(GQAP)19, A98K^, A99P, B25H, B29R, desB30 human insulin)/(227A, 234A, 235K, 297E, 315Q, 384Q, des447 hIgG4-Fc(228-447)) … (other)
chain 1: B2 chain 1
chain 2: FVNQHLCGSHLVEALYLVCGERGFHYTPR
chain 3: B2 chain 3
modifications: Cys229 (EU numbering) sulphur bound to an acetyl arm of the linker; A98K N(eps) acylated by the trivalent linker 6-[bis[2-[(2-acetyl)amino]ethyl]amino]-6-oxo-hexanoyl
notes: also called Ex 5.16
Consider B11, for which, in experiment [1], the “Lipogenesis in rat adipocytes [Potency (%)] Mean Value” was 4.34 % of human insulin. In addition, the “Insulin receptor affinity [IC50 relative to HI (%)]” value with insulin receptor A is 3.86%.
